Earlier results as cited in publication PMC9254164.

Molecular target: phospho-ubiquitin (Homo sapiens) (UniProt P0CG47)

Parkin, sequence (O60260 whole entry): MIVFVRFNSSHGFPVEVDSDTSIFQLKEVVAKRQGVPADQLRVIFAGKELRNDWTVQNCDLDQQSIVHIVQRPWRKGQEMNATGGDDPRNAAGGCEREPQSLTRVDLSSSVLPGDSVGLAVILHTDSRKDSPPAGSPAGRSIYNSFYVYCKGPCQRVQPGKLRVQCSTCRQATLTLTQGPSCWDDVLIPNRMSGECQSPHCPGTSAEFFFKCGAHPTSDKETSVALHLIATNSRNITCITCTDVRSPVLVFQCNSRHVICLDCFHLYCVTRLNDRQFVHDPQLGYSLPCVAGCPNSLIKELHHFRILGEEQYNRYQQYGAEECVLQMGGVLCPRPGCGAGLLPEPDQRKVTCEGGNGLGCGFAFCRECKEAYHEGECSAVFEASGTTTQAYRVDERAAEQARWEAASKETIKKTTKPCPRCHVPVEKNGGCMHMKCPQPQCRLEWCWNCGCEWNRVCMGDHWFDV

In the case of Parkin (from UniProt O60260), the Kd is given as 20 nM.
